The results in this text go back to patent publication US20230406885A1, “CYCLIC PEPTIDES FOR TRAPPING INTERLEUKIN-1 BETA” (MERCK SHARP & DOHME LLC, priority 2022, published 2023).

*1 amine or outer side, *2 acyl side, *3 side chain or, on linkers, in order; H or OH if unused. [ ]: non-standard residue; d: D form. TyrEtNAc = L-tyrosine O-ethyl acetamide, (S)-3-(4-(2-acetamidoethoxy)phenyl)-2-aminopropanoic acid, CC(=O)NCCOc1ccc(C[C@H](N[*:1])C(=O)[*:2])cc1; Pro(trans-4-NH2) = O=C([C@@H]1C[C@@H](N[*:3])CN1[*:1])[*:2]; Bip(4'-COOH) = N[C@@H](Cc1ccc(-c2ccc(C(=O)O)cc2)cc1)C(=O)O; 1Nal(3S-Me) = C[C@@H](c1cccc2ccccc12)[C@H](N)C(=O)O; Phe(4-COOH) = N[C@@H](Cc1ccc(C(=O)O)cc1)C(=O)O; h3Pal(5-CN) = N#Cc1cncc(CC[C@H](N)C(=O)O)c1; 1Nal = N[C@@H](Cc1cccc2ccccc12)C(=O)O; hTyr = N[C@@H](CCc1ccc(O)cc1)C(=O)O; dDab = NCC[C@@H](N)C(=O)O; Orn = NCCC[C@H](N)C(=O)O; dNMeA = CN[C@H](C)C(=O)O; Nva = CCC[C@H](N)C(=O)O; Dap = NC[C@H](N)C(=O)O; Aib = CC(C)(N)C(=O)O

The chains are these.
B1: SEQ ID NO: 99 (peptide)
peptide: cyclo([TyrEtNAc]W[Phe(4-COOH)]G[Pro(trans-4-NH2)][1Nal(3S-Me)]D[dNMeA]G[Bip(4'-COOH)][1Nal][Orn][Aib][hTyr])
SMILES: CC(=O)NCCOc1ccc(C[C@@H]2NC(=O)[C@H](CCc3ccc(O)cc3)NC(=O)C(C)(C)NC(=O)[C@H](CCCN)NC(=O)[C@H](Cc3cccc4ccccc34)NC(=O)[C@H](Cc3ccc(-c4ccc(C(=O)O)cc4)cc3)NC(=O)CNC(=O)[C@@H](C)N(C)C(=O)[C@H](CC(=O)O)NC(=O)[C@H]([C@@H](C)c3cccc4ccccc34)NC(=O)[C@@H]3C[C@@H](N)CN3C(=O)CNC(=O)[C@H](Cc3ccc(C(=O)O)cc3)NC(=O)[C@H](Cc3c[nH]c4ccccc34)NC2=O)cc1
B2: SEQ ID NO: 98 (peptide)
peptide: cyclo([TyrEtNAc]W[Phe(4-COOH)]G[Pro(trans-4-NH2)][1Nal(3S-Me)]D[dNMeA]G[Bip(4'-COOH)][1Nal][Nva][dA]A)
SMILES: CCC[C@@H]1NC(=O)[C@H](Cc2cccc3ccccc23)NC(=O)[C@H](Cc2ccc(-c3ccc(C(=O)O)cc3)cc2)NC(=O)CNC(=O)[C@@H](C)N(C)C(=O)[C@H](CC(=O)O)NC(=O)[C@H]([C@@H](C)c2cccc3ccccc23)NC(=O)[C@@H]2C[C@@H](N)CN2C(=O)CNC(=O)[C@H](Cc2ccc(C(=O)O)cc2)NC(=O)[C@H](Cc2c[nH]c3ccccc23)NC(=O)[C@H](Cc2ccc(OCCNC(C)=O)cc2)NC(=O)[C@H](C)NC(=O)[C@@H](C)NC1=O
B3: SEQ ID NO: 124 (Example No. 124) (peptide)
peptide: cyclo([TyrEtNAc]W[Phe(4-COOH)]G[Pro(trans-4-NH2)][1Nal(3S-Me)]D[dNMeA]G[Bip(4'-COOH)]WL[dA]A)
SMILES: CC(=O)NCCOc1ccc(C[C@@H]2NC(=O)[C@H](C)NC(=O)[C@@H](C)NC(=O)[C@H](CC(C)C)NC(=O)[C@H](Cc3c[nH]c4ccccc34)NC(=O)[C@H](Cc3ccc(-c4ccc(C(=O)O)cc4)cc3)NC(=O)CNC(=O)[C@@H](C)N(C)C(=O)[C@H](CC(=O)O)NC(=O)[C@H]([C@@H](C)c3cccc4ccccc34)NC(=O)[C@@H]3C[C@@H](N)CN3C(=O)CNC(=O)[C@H](Cc3ccc(C(=O)O)cc3)NC(=O)[C@H](Cc3c[nH]c4ccccc34)NC2=O)cc1
B4: SEQ ID NO: 123 (Example No. 123) (peptide)
peptide: cyclo([TyrEtNAc]W[Phe(4-COOH)]G[Pro(trans-4-NH2)][1Nal(3S-Me)]D[dNMeA]G[Bip(4'-COOH)]WG[dDab][hTyr])
SMILES: CC(=O)NCCOc1ccc(C[C@@H]2NC(=O)[C@H](CCc3ccc(O)cc3)NC(=O)[C@@H](CCN)NC(=O)CNC(=O)[C@H](Cc3c[nH]c4ccccc34)NC(=O)[C@H](Cc3ccc(-c4ccc(C(=O)O)cc4)cc3)NC(=O)CNC(=O)[C@@H](C)N(C)C(=O)[C@H](CC(=O)O)NC(=O)[C@H]([C@@H](C)c3cccc4ccccc34)NC(=O)[C@@H]3C[C@@H](N)CN3C(=O)CNC(=O)[C@H](Cc3ccc(C(=O)O)cc3)NC(=O)[C@H](Cc3c[nH]c4ccccc34)NC2=O)cc1
B5: SEQ ID NO: 122 (Example No. 122) (peptide)
peptide: cyclo([TyrEtNAc]W[Phe(4-COOH)]G[Pro(trans-4-NH2)][1Nal(3S-Me)]D[dNMeA]G[Bip(4'-COOH)]WG[dDab][h3Pal(5-CN)])
SMILES: CC(=O)NCCOc1ccc(C[C@@H]2NC(=O)[C@H](CCc3cncc(C#N)c3)NC(=O)[C@@H](CCN)NC(=O)CNC(=O)[C@H](Cc3c[nH]c4ccccc34)NC(=O)[C@H](Cc3ccc(-c4ccc(C(=O)O)cc4)cc3)NC(=O)CNC(=O)[C@@H](C)N(C)C(=O)[C@H](CC(=O)O)NC(=O)[C@H]([C@@H](C)c3cccc4ccccc34)NC(=O)[C@@H]3C[C@@H](N)CN3C(=O)CNC(=O)[C@H](Cc3ccc(C(=O)O)cc3)NC(=O)[C@H](Cc3c[nH]c4ccccc34)NC2=O)cc1
B6: SEQ ID NO: 125 (Example No. 125) (peptide)
peptide: cyclo([TyrEtNAc]W[Phe(4-COOH)]G[Pro(trans-4-NH2)][1Nal(3S-Me)]D[dNMeA]G[Bip(4'-COOH)]WL[dA][hTyr])
SMILES: CC(=O)NCCOc1ccc(C[C@@H]2NC(=O)[C@H](CCc3ccc(O)cc3)NC(=O)[C@@H](C)NC(=O)[C@H](CC(C)C)NC(=O)[C@H](Cc3c[nH]c4ccccc34)NC(=O)[C@H](Cc3ccc(-c4ccc(C(=O)O)cc4)cc3)NC(=O)CNC(=O)[C@@H](C)N(C)C(=O)[C@H](CC(=O)O)NC(=O)[C@H]([C@@H](C)c3cccc4ccccc34)NC(=O)[C@@H]3C[C@@H](N)CN3C(=O)CNC(=O)[C@H](Cc3ccc(C(=O)O)cc3)NC(=O)[C@H](Cc3c[nH]c4ccccc34)NC2=O)cc1
B7: SEQ ID NO: 121 (Example No. 121) (peptide)
peptide: cyclo([TyrEtNAc]W[Phe(4-COOH)]G[Pro(trans-4-NH2)][1Nal(3S-Me)]D[dNMeA]G[Bip(4'-COOH)]W[Dap][dNMeA][hTyr])
SMILES: CC(=O)NCCOc1ccc(C[C@@H]2NC(=O)[C@H](CCc3ccc(O)cc3)NC(=O)[C@@H](C)N(C)C(=O)[C@H](CN)NC(=O)[C@H](Cc3c[nH]c4ccccc34)NC(=O)[C@H](Cc3ccc(-c4ccc(C(=O)O)cc4)cc3)NC(=O)CNC(=O)[C@@H](C)N(C)C(=O)[C@H](CC(=O)O)NC(=O)[C@H]([C@@H](C)c3cccc4ccccc34)NC(=O)[C@@H]3C[C@@H](N)CN3C(=O)CNC(=O)[C@H](Cc3ccc(C(=O)O)cc3)NC(=O)[C@H](Cc3c[nH]c4ccccc34)NC2=O)cc1
B8: SEQ ID NO: 127 (Example No. 127) (peptide)
peptide: cyclo([TyrEtNAc]W[Phe(4-COOH)]G[Pro(trans-4-NH2)][1Nal(3S-Me)]D[dNMeA]G[Bip(4'-COOH)]W[Orn][Aib][hTyr])
SMILES: CC(=O)NCCOc1ccc(C[C@@H]2NC(=O)[C@H](CCc3ccc(O)cc3)NC(=O)C(C)(C)NC(=O)[C@H](CCCN)NC(=O)[C@H](Cc3c[nH]c4ccccc34)NC(=O)[C@H](Cc3ccc(-c4ccc(C(=O)O)cc4)cc3)NC(=O)CNC(=O)[C@@H](C)N(C)C(=O)[C@H](CC(=O)O)NC(=O)[C@H]([C@@H](C)c3cccc4ccccc34)NC(=O)[C@@H]3C[C@@H](N)CN3C(=O)CNC(=O)[C@H](Cc3ccc(C(=O)O)cc3)NC(=O)[C@H](Cc3c[nH]c4ccccc34)NC2=O)cc1
B9: SEQ ID NO: 126 (Example No. 126) (peptide)
peptide: cyclo([TyrEtNAc]W[Phe(4-COOH)]G[Pro(trans-4-NH2)][1Nal(3S-Me)]D[dNMeA]G[Bip(4'-COOH)]WL[dDab][hTyr])
SMILES: CC(=O)NCCOc1ccc(C[C@@H]2NC(=O)[C@H](CCc3ccc(O)cc3)NC(=O)[C@@H](CCN)NC(=O)[C@H](CC(C)C)NC(=O)[C@H](Cc3c[nH]c4ccccc34)NC(=O)[C@H](Cc3ccc(-c4ccc(C(=O)O)cc4)cc3)NC(=O)CNC(=O)[C@@H](C)N(C)C(=O)[C@H](CC(=O)O)NC(=O)[C@H]([C@@H](C)c3cccc4ccccc34)NC(=O)[C@@H]3C[C@@H](N)CN3C(=O)CNC(=O)[C@H](Cc3ccc(C(=O)O)cc3)NC(=O)[C@H](Cc3c[nH]c4ccccc34)NC2=O)cc1

In the first assay the target is Recombinant human IL-1β (BioLegend 579404) (human, UniProt P01584 117-269). Nature of the assay: cell-based or functional assay.
Consider B1, for which the “MRC5 IC50” value was found to be 0.256 nM.

Regarding B2, the “MRC5 IC50” value amounted to 0.494 nM.

The target is the same in another assay. Nature of the assay: cell-based or functional assay. The source holds these as a separate data set.
Consider B3, for which the “MRC5 IC50” value turned out to be 0.636 nM.

On to B4, for which the “MRC5 IC50” value was found to be 0.0457 nM.

Consider B5, for which the “MRC5 IC50” value was found to be 0.0248 nM.

B6: the “MRC5 IC50” value worked out at 0.064 nM.

Turning to B7, the “MRC5 IC50” value was determined as 0.085 nM.

For B8, the “MRC5 IC50” value was 0.432 nM.

As to B9, the “MRC5 IC50” value came out at 0.37 nM.
